Source: US20110098443A1 (Janssen / Centocor, published 2011)
Blank lines part the entries; values can stand above or below the binder they belong to.

Experiments:
[1] = target: T1, human GLP-1 receptor (full length, on cells) (human, UniProt P43220 24-463); assay: cell-based or functional assay
[2] = target: T1, human GLP-1 receptor (full length, on …); assay: calculated from the 125I GLP-1 displacement IC50, assuming a GLP-1 Kd of 3 nM and competitive inhibition; Ki derived from the IC50, assuming GLP-1 Kd of 3 nM and competitive inhibition
[3] = target: T1, human GLP-1 receptor (full length, on …); assay: displacement of 3 nM 125I GLP-1 from HEK293F cells over-expressing human GLP-1R, overnight at 4 C; IC50 fitted directly from displacement of 3 nM 125I GLP-1
[4] = target: T2, mouse IL-12 (biotinylated control protein) (mouse, UniProt P43431 23-215; P43432 23-335, biotinylated (site not stated)); assay: neutravidin capture ELISA
T2 sequence (looked up) 1: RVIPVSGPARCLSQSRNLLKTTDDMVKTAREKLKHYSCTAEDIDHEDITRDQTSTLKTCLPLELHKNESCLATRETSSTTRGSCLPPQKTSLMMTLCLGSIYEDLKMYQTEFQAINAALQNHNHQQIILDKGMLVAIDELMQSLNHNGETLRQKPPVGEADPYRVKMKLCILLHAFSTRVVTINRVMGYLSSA
T2 sequence (looked up) 2: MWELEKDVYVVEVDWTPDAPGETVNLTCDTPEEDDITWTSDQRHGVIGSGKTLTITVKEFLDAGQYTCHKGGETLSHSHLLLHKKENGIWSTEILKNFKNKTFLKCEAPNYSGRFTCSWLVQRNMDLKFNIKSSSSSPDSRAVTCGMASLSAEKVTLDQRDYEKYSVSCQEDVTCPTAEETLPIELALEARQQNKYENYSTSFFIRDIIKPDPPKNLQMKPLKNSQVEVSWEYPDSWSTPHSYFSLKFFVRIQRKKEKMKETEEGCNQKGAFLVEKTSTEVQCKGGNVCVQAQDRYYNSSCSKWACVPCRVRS
Protocol: (§1) The first characterization assay was a neutravidin capture assay. 96-well Maxisorp plates were coated (100 μl/well) with 5 μg/ml of neutravidin in PBS and were incubated at 4° C. overnight. Coated plates were washed with TBST. […] Plates were washed with TBST and blocked with 300 μl/well of 1× Chemiblocker for 1 hour at RT. Plates were washed with TBST. […] Plates were washed with TBST. Plates were treated for 1 hour at RT with 100 μl/well of goat anti-human IgG (H+L)-AP detection antibody diluted 1:5000 in TBST. AttoPhos substrate (1:5) detected AP activity.

[5] = target: T3, mouse IL-23 (biotinylated control protein) (mouse, UniProt Q9EQ14 22-196; P43432 23-335, biotinylated (site not stated)); assay: neutravidin capture ELISA
T3 sequence (looked up) 1: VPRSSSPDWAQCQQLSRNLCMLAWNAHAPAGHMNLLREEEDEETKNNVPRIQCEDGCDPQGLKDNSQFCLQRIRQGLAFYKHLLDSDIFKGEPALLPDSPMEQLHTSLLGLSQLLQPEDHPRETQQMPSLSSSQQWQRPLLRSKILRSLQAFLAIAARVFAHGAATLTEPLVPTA
T3 sequence (looked up) 2: T2 sequence (looked up) 2
Protocol: as §1

[6] = target: T4, mouse IL-18 (biotinylated control protein) (mouse, UniProt P70380 36-192, biotinylated (site not stated)); assay: neutravidin capture ELISA
T4 sequence (looked up): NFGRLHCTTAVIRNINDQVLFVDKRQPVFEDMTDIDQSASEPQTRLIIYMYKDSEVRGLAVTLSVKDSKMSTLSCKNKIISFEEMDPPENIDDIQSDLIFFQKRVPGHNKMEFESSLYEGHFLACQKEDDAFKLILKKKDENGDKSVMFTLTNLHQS
Protocol: as §1

[7] = target: rat transferrin (biotinylated control protein) (rat, UniProt P12346 20-698, biotinylated (site not stated)); assay: neutravidin capture ELISA
Protocol: as §1

Chain of rat transferrin (biotinylated control protein) (P12346 20-698 limits assumed): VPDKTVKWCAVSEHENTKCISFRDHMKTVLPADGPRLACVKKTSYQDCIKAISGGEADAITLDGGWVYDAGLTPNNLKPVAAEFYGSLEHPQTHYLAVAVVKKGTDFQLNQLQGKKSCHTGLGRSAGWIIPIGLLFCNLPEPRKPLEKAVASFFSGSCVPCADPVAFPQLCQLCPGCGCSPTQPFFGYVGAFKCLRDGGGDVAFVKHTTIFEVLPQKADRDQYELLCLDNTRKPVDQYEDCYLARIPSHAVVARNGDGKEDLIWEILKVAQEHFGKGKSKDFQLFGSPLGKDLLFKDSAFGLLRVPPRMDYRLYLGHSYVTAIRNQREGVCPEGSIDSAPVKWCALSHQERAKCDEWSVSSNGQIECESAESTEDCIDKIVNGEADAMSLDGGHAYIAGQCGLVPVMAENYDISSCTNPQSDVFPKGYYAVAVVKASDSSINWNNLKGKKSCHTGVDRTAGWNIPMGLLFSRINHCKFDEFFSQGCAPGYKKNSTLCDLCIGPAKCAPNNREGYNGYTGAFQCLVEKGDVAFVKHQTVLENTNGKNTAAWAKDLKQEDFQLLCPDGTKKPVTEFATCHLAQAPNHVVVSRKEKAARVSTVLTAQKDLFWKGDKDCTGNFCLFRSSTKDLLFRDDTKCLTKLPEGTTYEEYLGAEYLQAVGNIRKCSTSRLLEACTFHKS

IC50 of inhibition of GLP-1 dependent cAMP accumulation (0.3 nM GLP-1, HEK293F cells over-expressing human GLP-1R) [1]: 3.3 nM
Ki [2]: ~20 nM
IC50 [3]: 48.5 nM
B1: PHD 191 (format not stated in the assay) (antibody, V domains shown)
VH: QVELVQSGAEVKKPGSSVKVSCKASGGTFSAIHWVRQAPGQGLEWMGGIIPIFGMADYAQKFQGRVTITADESTSTAYMELSSLRSEDTAVYYCARTDYGFRALDYWGQGTLVTVSS
VL: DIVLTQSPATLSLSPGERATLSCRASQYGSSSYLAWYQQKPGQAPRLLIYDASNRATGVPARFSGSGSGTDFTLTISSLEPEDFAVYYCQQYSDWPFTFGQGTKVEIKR

binding result [4]: no binding (tested: starting at 5 µg/ml)
binding result [5]: no binding (tested: starting at 5 µg/ml)
binding result [6]: no binding (tested: starting at 5 µg/ml)
binding result [7]: no binding (tested: starting at 5 µg/ml)
B2: PHD 191 mAb, human IgG1 / human kappa (antibody, V domains shown)
VH: B1 VH
VL: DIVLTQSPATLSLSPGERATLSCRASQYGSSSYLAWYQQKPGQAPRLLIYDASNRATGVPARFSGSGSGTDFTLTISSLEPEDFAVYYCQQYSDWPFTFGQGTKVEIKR
notes: The human IgG1/kappa format is inferred from the goat anti-human IgG (H+L) detection antibody
